Measurements published in US20220001043A1 (IMAGINAB, published 2022).
Each block holds one binder with its values, some of them ahead of it.

Assays:
human CD8 [1] = target: T1, human CD8 (Homo sapiens, UniProt P01732 22-235; A6NJW9 19-210); experiment: binding to CD8 glycoprotein; method not given
T1 construct: CD8 as carried by purified human T cells, HPB-ALL leukemia cells, human tissues and CD8+ cells in patients; also called huCD8; CD8 glycoprotein

human CD8 [2] = target: T1, human CD8; experiment: cell binding; read as HPB-ALL cells ('respectively' taken to mean the cell types, as in p-1525)
human CD8 [3] = target: T1, human CD8; experiment: cell binding; read as purified human T cells ('respectively' taken to mean the cell types, as in p-1525)
human CD8 [4] = target: T1, human CD8; experiment: flow cytometry on human T cells carrying CD8
Method: (§1) The binding affinity and specificity of IAB22M2C and Zr-Df-IAB22M2C to human CD8 expressed on cell surfaces were evaluated by flow cytometry for a several cell types, including HPB-ALL leukemia cells (DSMZ, Braunschweig, Germany), purified human T cells, and PC3 prostate cancer cells engineered to express huCD8 (ImaginAb, Inc.).

human CD8 [5] = target: T1, human CD8; experiment: flow cytometry on HPB-ALL cell line carrying CD8
Method: as §1

T1 sequence (P01732 22-235 limits assumed, chain 1 of 2): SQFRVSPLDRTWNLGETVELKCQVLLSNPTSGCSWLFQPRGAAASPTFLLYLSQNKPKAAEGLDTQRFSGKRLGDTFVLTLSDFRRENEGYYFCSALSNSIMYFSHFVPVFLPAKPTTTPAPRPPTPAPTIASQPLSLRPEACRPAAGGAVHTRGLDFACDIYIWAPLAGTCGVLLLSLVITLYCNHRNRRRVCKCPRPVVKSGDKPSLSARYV
T1 sequence (A6NJW9 19-210 C51R/T71A limits assumed, chain 2 of 2): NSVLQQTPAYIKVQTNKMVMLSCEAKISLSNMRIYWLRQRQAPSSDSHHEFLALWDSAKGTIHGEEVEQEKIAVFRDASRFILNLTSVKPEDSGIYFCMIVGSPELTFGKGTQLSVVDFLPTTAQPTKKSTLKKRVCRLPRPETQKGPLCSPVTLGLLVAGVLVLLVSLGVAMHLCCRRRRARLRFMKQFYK

EC50 (human CD8 [1]): 0.4 nM
B1: 89Zr-Df-IAB22M2C (other)
chain: DVQITQSPSSLSASVGDRVTITCRTSRSISQYLAWYQQKPGKVPKLLIYSGSTLQSGVPSRFSGSGSGTDFTLTISSLQPEDVATYYCQQHNENPLTFGGGTKVEIKGSTSGGGSGGGSGGGGSSEVQLVESGGGLVQPGGSLRLSCAASGFNIKDTYIHFVRQAPGKGLEWIGRIDPANDNTLYASKFQGKATISADTSKNTAYLQMNSLRAEDTAVYYCGRGYGYYVFDHWGQGTLVTVSSEPKSSDKTHTCPPCPPCGGGSSGGGSGGQPREPQVYTLPPSREEMTKNQVSLTCLVKGFYPSDIAVEWESNGQPENNYKTTPPVLDSDGSFFLYSKLTVDKSRWQQGNVFSCSVMHEALHNHYTQKSLSLSPG
modifications: deferoxamine (Df) conjugated to lysine residues, radiolabeled with 89Zr
notes: Radiolabeled drug product; Same polypeptide as m1; For patients it is formulated together with cold unconjugated IAB22M2C; also called 89Zr-Df-IAB22M Lot: 42-040A; CD8 PET tracer

EC50 (human CD8 [2]): 0.3 nM
EC50 (human CD8 [3]): 0.4 nM
B2: Df-IAB22M2C (other)
chain: DVQITQSPSSLSASVGDRVTITCRTSRSISQYLAWYQQKPGKVPKLLIYSGSTLQSGVPSRFSGSGSGTDFTLTISSLQPEDVATYYCQQHNENPLTFGGGTKVEIKGSTSGGGSGGGSGGGGSSEVQLVESGGGLVQPGGSLRLSCAASGFNIKDTYIHFVRQAPGKGLEWIGRIDPANDNTLYASKFQGKATISADTSKNTAYLQMNSLRAEDTAVYYCGRGYGYYVFDHWGQGTLVTVSSEPKSSDKTHTCPPCPPCGGGSSGGGSGGQPREPQVYTLPPSREEMTKNQVSLTCLVKGFYPSDIAVEWESNGQPENNYKTTPPVLDSDGSFFLYSKLTVDKSRWQQGNVFSCSVMHEALHNHYTQKSLSLSPG
modifications: deferoxamine (Df) conjugated to lysine residues; chelator:minibody ratio of approximately 2
notes: Same polypeptide as m1; also called desferrioxamine-conjugated IAB22M2C; Df-IAB22M2C critical intermediate

EC50 (human CD8 [4]): 0.4 nM
EC50 (human CD8 [5]): 0.3 nM
B3: IAB22M2C (other)
chain: DVQITQSPSSLSASVGDRVTITCRTSRSISQYLAWYQQKPGKVPKLLIYSGSTLQSGVPSRFSGSGSGTDFTLTISSLQPEDVATYYCQQHNENPLTFGGGTKVEIKGSTSGGGSGGGSGGGGSSEVQLVESGGGLVQPGGSLRLSCAASGFNIKDTYIHFVRQAPGKGLEWIGRIDPANDNTLYASKFQGKATISADTSKNTAYLQMNSLRAEDTAVYYCGRGYGYYVFDHWGQGTLVTVSSEPKSSDKTHTCPPCPPCGGGSSGGGSGGQPREPQVYTLPPSREEMTKNQVSLTCLVKGFYPSDIAVEWESNGQPENNYKTTPPVLDSDGSFFLYSKLTVDKSRWQQGNVFSCSVMHEALHNHYTQKSLSLSPG
notes: also called IAB22M2C Mb; IAB22M2C minibody
